Series [1] is described as follows: Maximum tolerated dose (MTD) study. It counts as in vivo, mouse. The method, then: BALB/c Nude mice, female, 6-8 weeks, weighing approximately 18-22 g were purchased from the Shanghai SLAC Laboratory Animal Co., LTD. MTD studies were conducted at WuXi AppTec and the care and use of animals was conducted in accordance with the regulations of the Association for Assessment and Accreditation of Laboratory Animal Care (AAALAC). Two MTD studies were performed (a) a low dose study with doses ranging from 0.1, 0.5, 1 and 3 mg/kg and (b) a high dose study with doses ranging from 3, 5, 10 mg/kg. Dosing volume was determined based on body weight (10 ul/g) and PDCs were dissolved in 25 mM Histidine 10% sucrose pH 7 and administered i.v. at a single dose at day 0. The treatment and observation were conducted up to 7 days and MTD was defined by ≥20% body weight loss. Body weights were measured daily, death and observed clinical signs were recorded.
Doses of 3, 5, and 10 mg/kg were administered. MTD was defined by ≥20% body weight loss and body weight measured daily.

Series [2] has as its target T1, mouse SORT1 (76-753)-His (mouse, UniProt Q6PHU5 76-753).
T1 construct: range 76-753; Amine-coupled to CM5 chip for SPR
T1 sequence (looked up): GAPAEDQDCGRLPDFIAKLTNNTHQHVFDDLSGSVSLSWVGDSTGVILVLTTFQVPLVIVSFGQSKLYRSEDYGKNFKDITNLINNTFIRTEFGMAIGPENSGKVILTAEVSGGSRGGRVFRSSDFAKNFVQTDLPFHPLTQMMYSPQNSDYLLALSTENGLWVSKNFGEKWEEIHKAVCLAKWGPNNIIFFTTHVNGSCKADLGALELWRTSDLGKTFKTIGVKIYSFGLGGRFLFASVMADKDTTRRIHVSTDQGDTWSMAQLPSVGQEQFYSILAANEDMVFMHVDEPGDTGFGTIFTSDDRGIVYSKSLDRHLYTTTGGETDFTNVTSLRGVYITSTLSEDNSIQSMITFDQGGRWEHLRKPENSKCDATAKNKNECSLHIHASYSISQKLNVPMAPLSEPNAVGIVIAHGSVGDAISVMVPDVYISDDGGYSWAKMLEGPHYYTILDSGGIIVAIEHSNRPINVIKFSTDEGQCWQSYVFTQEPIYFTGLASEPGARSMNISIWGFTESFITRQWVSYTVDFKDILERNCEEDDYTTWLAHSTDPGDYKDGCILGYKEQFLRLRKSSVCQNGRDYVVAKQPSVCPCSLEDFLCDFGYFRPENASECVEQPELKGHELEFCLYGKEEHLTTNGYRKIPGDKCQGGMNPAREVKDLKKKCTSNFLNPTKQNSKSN
Description: SPR (Biacore 8K), SORT1 on CM5 chip, siRNA-peptide conjugate as analyte, 1:1 model. The method, then: (§1) SPR analysis was performed on Series S CM5 chips (Cytiva) using a Biacore 8K instrument (Cytiva). Sensorgrams were double-referenced by subtracting the response on both a reference flow cell and a blank sample. Human SORT1 (78-755)-His (Acrobiosystems), human SORT1 (78-755)-His(GenScript), mouse SORT1 (76-753)-His (R&D Systems), rat SORT1 (76-752)-His (GenScript), and cyno SORT1 (76-753)-His (GenScript) were diluted to 20-60 μg/mL in 10 mM sodium acetate pH 4.5 buffer and immobilized onto Series S CM5 chips using amine coupling at a flow rate of 10 μL/min for 45-100 s.
(§2) Ten start-up cycles and a blank cycle preceded each analysis run. The runs were performed by sequential injections of analyte (0-20 nM, 3-fold serial dilutions) with a 90 s association and 900 s dissociation at a flow rate of 30 μL/min, followed by two regeneration cycles with 2 M MgCl2 for 90 s at a flow rate of 10 μL/min. […] Five start-up cycles and a blank cycle preceded each analysis run. The runs were performed by sequential injections of analyte (0-25 nM) with a 150 seconds (s) association and 300 s dissociation at a flow rate of 30 μL/min, followed by a regeneration with 2 M MgCl₂ for 200 s at a flow rate of 10 μL/min. The kinetic rate constants (kₐ and kd) and the equilibrium binding constant (Kd) were calculated using a 1:1 kinetic binding model on the Biacore Insight Evaluation Software (Cytiva).
(§3) SPR analysis was performed on Series S CM5 chips (Cytiva) using a Biacore 8K instrument (Cytiva). Sensorgrams were double-referenced by subtracting the response on both a reference flow cell and a blank sample. The SPR analysis was conducted using four different SORT1 species: Human SORT1, Mouse SORT1, Rat SORT1, and Cyno SORT1. The samples were prepared according to the general procedure described above herein. The kinetic rate constants (ka and […]) and the equilibrium binding constant (Kd) were calculated using a 1:1 kinetic binding model on the Biacore Insight Evaluation Software (Cytiva).

The target of series [3] is T2, cyno SORT1 (76-753)-His (cyno, UniProt A0A2K5VHG2 74-751).
T2 construct: range 76-753; Amine-coupled to CM5 chip for SPR
T2 sequence: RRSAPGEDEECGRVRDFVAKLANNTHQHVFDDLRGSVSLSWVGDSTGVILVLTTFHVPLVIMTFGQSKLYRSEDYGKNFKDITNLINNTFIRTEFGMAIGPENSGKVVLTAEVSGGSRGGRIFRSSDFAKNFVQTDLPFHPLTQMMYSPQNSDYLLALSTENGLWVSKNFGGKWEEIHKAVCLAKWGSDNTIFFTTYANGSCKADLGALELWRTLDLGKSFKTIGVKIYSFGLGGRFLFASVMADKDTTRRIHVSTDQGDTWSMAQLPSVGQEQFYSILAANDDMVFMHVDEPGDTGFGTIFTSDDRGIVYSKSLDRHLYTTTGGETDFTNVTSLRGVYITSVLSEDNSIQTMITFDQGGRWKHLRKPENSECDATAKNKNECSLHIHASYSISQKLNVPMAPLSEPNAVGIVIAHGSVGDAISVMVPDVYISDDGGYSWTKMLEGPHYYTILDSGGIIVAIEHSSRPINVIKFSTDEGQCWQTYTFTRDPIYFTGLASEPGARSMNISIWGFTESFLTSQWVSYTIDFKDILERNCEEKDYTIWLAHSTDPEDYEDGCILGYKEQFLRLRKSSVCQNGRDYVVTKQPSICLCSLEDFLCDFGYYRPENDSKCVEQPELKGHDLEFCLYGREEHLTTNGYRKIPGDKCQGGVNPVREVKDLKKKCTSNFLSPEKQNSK
The series is described as above. The method, then: as §1, §2, §3

Bridges are numbered along the chain shown (N, C = ends). Where no end group is shown, it is not given here. Side-chain parts run from the residue outwards. [ ]: non-standard residue; d: D form. tBuAla = CC(C)(C)C[C@H](N)C(=O)O; Tle = CC(C)(C)[C@H](N)C(=O)O; linker = not defined here; Nle = CCCC[C@H](N)C(=O)O; siRNA = not defined here

Here are results for two molecules from US20260183411A1, “TARGETING SORTILIN” (priority 2024, published 2026).

With `CC[C@H](C)[C@@H]([C@@H](CC(=O)N1CCC[C@H]1[C@H](OC)[C@@H](C)C(=O)N[C@H](C)[C@@H](O)c1ccccc1)OC)N(C)C(=O)[C@@H](NC(=O)[C@H](C(C)C)N(C)C(=O)OCc1ccc(NC(=O)[C@H](CCCNC(N)=O)NC(=O)[C@@H](NC(=O)CCCC(=O)NCCC(=O)N(C)CC(=O)N(C)CC(=O)N(C)CC(=O)N(C)CC(=O)N[C@@H](C)C(=O)N2CCC[C@H]2C(=O)N[C@@H](CCCNC(=N)N)C(=O)N[C@@H](Cc2c[nH]c3ccccc23)C(=O)N[C@@H](CC(=O)O)C(=O)N[C@@H](C)C(=O)N2CCC[C@H]2C(=O)N[C@@H](CC(C)C)C(=O)N[C@@H](CCCNC(=N)N)C(=O)N[C@@H](CC(=O)O)C(=O)N2CCC[C@H]2C(=O)N[C@@H](C)C(=O)N[C@@H](CC(C)C)C(=O)N[C@@H](CCCNC(=N)N)C(=O)N[C@@H](CCC(N)=O)C(=O)N[C@@H](CC(C)C)C(=O)N[C@@H](CC(C)C)C(=O)O)C(C)C)cc1)C(C)C` [PRGN_WT_PDC], in series [1] (5 mg/kg i.v. single dose, after 48 hrs, recovered at Day 7), the “sustained body weight loss” value is given as around 15%. Besides, the toxicity result in series [1] (10 mg/kg i.v. single dose) is on record as “significant toxicity”. For the same molecule, the body weight loss entry in series [1] (10 mg/kg i.v. single dose, after 48 hrs, BALB/c nude mice) is “greater than 20%”.

B1: SORT1 peptide 3 conjugate (peptide)
peptide: RWCENK([linker-siRNA])R[Nle]FTCRQ[Tle][tBuAla]
modifications: disulfide 3-11 (inferred); not fully specified; printed as RWCENKR(Nle)FTCRQ(B13)(F02); reading uncertain
notes: also called SORT1 peptide 3 siRNA conjugate
Take B1: the Kd is 178 nM in series [2] and 191 nM in series [3].
